According to PMC6144819 (Nucleic Acids Research, 2018):

Target: T1, Drosophila SUMO-TRAX (WT) (Drosophila, UniProt Q9VF77 1-298)
T1 sequence (looked up): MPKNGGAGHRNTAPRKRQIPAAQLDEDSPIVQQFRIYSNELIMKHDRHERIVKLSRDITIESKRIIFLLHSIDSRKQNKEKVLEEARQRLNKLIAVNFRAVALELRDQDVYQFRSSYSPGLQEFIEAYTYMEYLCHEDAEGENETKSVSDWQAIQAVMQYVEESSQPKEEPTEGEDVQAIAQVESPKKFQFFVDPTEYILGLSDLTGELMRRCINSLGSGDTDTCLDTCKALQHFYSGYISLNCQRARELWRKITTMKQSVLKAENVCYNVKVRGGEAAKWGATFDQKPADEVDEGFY
Test: cryo-EM structure

B1: Drosophila Translin (natural protein, UniProt Q7JVK6 1-235, looked up)
chain: MSNFVNLDIFSNYQKYIDNEQEVRENIRIVVREIEHLSKEAQIKLQIIHSDLSQISAACGLARKQVELCAQKYQKLAELVPAGQYYRYSDHWTFITQRLIFIIALVIYLEAGFLVTRETVAEMLGLKISQSEGFHLDVEDYLLGILQLASELSRFATNSVTMGDYERPLNISHFIGDLNTGFRLLNLKNDGLRKRFDALKYDVKKIEEVVYDVSIRGLSSKEKDQQEEPAVPATE
- stoichiometry N: 1 TRAX per Translin (4:4)
